Source: patent US20030108992A1
Blank lines part the entries; values can stand above or below the substance they belong to.

Assays:
[1] = biological target: p60 TNFR (endogenous) (UniProt P19438); test: cell-based or functional assay
[2] = biological target: Fas 1-210:YFP (human) (UniProt P25445); test: CFP dequenching after YFP photobleaching, fluorescence microscope
[3] = biological target: p60ΔCD-HA (UniProt P19438); test: flow cytometry of transfected cells; % MAB225 positive / % HA positive
[4] = biological target: p60ΔCD-HA K32A (UniProt P19438); test: as above
[5] = biological target: p60ΔCD-HA Q24A (UniProt P19438); test: as above
[6] = biological target: p60ΔCD-HA L112E (UniProt P19438); test: as above
[7] = biological target: p60ΔCD-HA K19E (UniProt P19438); test: as above
[8] = biological target: p60ΔCD-HA W108T (UniProt P19438); test: as above
[9] = biological target: p60ΔCD-HA E57A (UniProt P19438); test: as above
[10] = biological target: p60ΔCD-HA R77A (UniProt P19438); test: as above
[11] = biological target: p60ΔCD-HA T61A (UniProt P19438); test: as above
[12] = biological target: p60 55-211 (UniProt P19438); test: as above
[13] = biological target: p60ΔCD-HA N66F (UniProt P19438); test: as above
[14] = biological target: p60ΔCD-HA DT49/50AA (UniProt P19438); test: as above
[15] = biological target: p60ΔCD-HA KY19/20AA (UniProt P19438); test: as above
[16] = biological target: p60ΔCD-HA (UniProt P19438); test: flow cytometry of transfected cells; normalized against HA staining
[17] = biological target: p60ΔCD-HA K32A (UniProt P19438); test: as above
[18] = biological target: p60ΔCD-HA Q24A (UniProt P19438); test: as above
[19] = biological target: p60ΔCD-HA L112E (UniProt P19438); test: as above
[20] = biological target: p60ΔCD-HA K19E (UniProt P19438); test: as above
[21] = biological target: p60ΔCD-HA W108T (UniProt P19438); test: as above
[22] = biological target: p60ΔCD-HA E57A (UniProt P19438); test: as above
[23] = biological target: p60ΔCD-HA R77A (UniProt P19438); test: as above
[24] = biological target: p60ΔCD-HA T61A (UniProt P19438); test: as above
[25] = biological target: p60 55-211 (UniProt P19438); test: as above
[26] = biological target: p60ΔCD-HA N66F (UniProt P19438); test: as above
[27] = biological target: p60ΔCD-HA DT49/50AA (UniProt P19438); test: as above
[28] = biological target: p60ΔCD-HA KY19/20AA (UniProt P19438); test: as above

Substance: p60ΔCD-HA L112E (from UniProt P19438 30-240) (receptor)
- DOMINANT … (protection against TNF-induced death) (% of p60ΔCD wild type) [1]: 50

Substance: p60ΔCD-HA DT49/50AA (from UniProt P19438 30-240) (receptor)
- DOMINANT … (protection against TNF-induced death) (% of p60ΔCD wild type) [1]: 50

Substance: p60ΔCD-HA N66F (from UniProt P19438 30-240) (receptor)
- DOMINANT … (protection against TNF-induced death) (% of p60ΔCD wild type) [1]: 50

Substance: p60ΔCD-HA W108T (from UniProt P19438 30-240) (receptor)
- DOMINANT … (protection against TNF-induced death) (% of p60ΔCD wild type) [1]: 50

Substance: p60ΔCD-HA K19E (from UniProt P19438 30-240) (receptor)
- DOMINANT … (protection against TNF-induced death) (% of p60ΔCD wild type) [1]: 50

Substance: p60ΔCD-HA R77A (from UniProt P19438 30-240) (receptor)
- DOMINANT … (protection against TNF-induced death) (% of p60ΔCD wild type) [1]: 50

Substance: p60ΔCD-HA E57A (from UniProt P19438 30-240) (receptor)
- DOMINANT … (protection against TNF-induced death) (% of p60ΔCD wild type) [1]: 50

Substance: p60 55-211 (from UniProt P19438 55-211) (receptor)
- DOMINANT … (protection against TNF-induced death) [1]: < 5 % protection

Substance: p60ΔCD-HA T61A (from UniProt P19438 30-240) (receptor)
- DOMINANT … (protection against TNF-induced death) (% of p60ΔCD wild type) [1]: 50

- FRET efficiency [2]: 16%
Substance: Fas 1-210:CFP (from UniProt P25445 17-226) (receptor)

Substance: p60ΔCD-HA KY19/20AA (from UniProt P19438 30-240) (receptor)
- DOMINANT … (protection against TNF-induced death) [1]: < 5 % protection

- MAB225 staining normalized to HA staining (ratio, p60ΔCD set at 1) [3]: 1
- MAB225 staining normalized to HA staining (ratio, p60ΔCD set at 1) [4]: 0.36
- MAB225 staining normalized to HA staining (ratio, p60ΔCD set at 1) [5]: 1.06
- MAB225 staining normalized to HA staining (ratio, p60ΔCD set at 1) [6]: 1.31
- MAB225 staining normalized to HA staining (ratio, p60ΔCD set at 1) [7]: 1.05
- MAB225 staining normalized to HA staining (ratio, p60ΔCD set at 1) [8]: 1.32
- MAB225 staining normalized to HA staining (ratio, p60ΔCD set at 1) [9]: 1.68
- MAB225 staining normalized to HA staining (ratio, p60ΔCD set at 1) [10]: 1.06
- MAB225 staining normalized to HA staining (ratio, p60ΔCD set at 1) [11]: 1.42
- MAB225 staining normalized to HA staining (ratio, p60ΔCD set at 1) [12]: 0.87
- MAB225 staining normalized to HA staining (ratio, p60ΔCD set at 1) [13]: 0.67
- MAB225 staining normalized to HA staining (ratio, p60ΔCD set at 1) [14]: 1.16
- MAB225 staining normalized to HA staining (ratio, p60ΔCD set at 1) [15]: 0.59
Substance: p60-specific monoclonal antibody clone MAB225 (R&D Systems)

- clone 4.12 staining normalized to HA staining (ratio, p60ΔCD set at 1) [16]: 1
- clone 4.12 staining normalized to HA staining (ratio, p60ΔCD set at 1) [17]: 0.01
- clone 4.12 staining normalized to HA staining (ratio, p60ΔCD set at 1) [18]: 0.97
- clone 4.12 staining normalized to HA staining (ratio, p60ΔCD set at 1) [19]: 1.27
- clone 4.12 staining normalized to HA staining (ratio, p60ΔCD set at 1) [20]: 1.07
- clone 4.12 staining normalized to HA staining (ratio, p60ΔCD set at 1) [21]: 1.11
- clone 4.12 staining normalized to HA staining (ratio, p60ΔCD set at 1) [22]: 0.04
- clone 4.12 staining normalized to HA staining (ratio, p60ΔCD set at 1) [23]: 0.99
- clone 4.12 staining normalized to HA staining (ratio, p60ΔCD set at 1) [24]: 1.28
- clone 4.12 staining normalized to HA staining (ratio, p60ΔCD set at 1) [25]: 0.02
- clone 4.12 staining normalized to HA staining (ratio, p60ΔCD set at 1) [26]: 0.04
- clone 4.12 staining normalized to HA staining (ratio, p60ΔCD set at 1) [27]: 0.96
- clone 4.12 staining normalized to HA staining (ratio, p60ΔCD set at 1) [28]: 0.14
Substance: p60-specific monoclonal antibody clone 4.12 (Zymed)

Substance: p60ΔCD-HA K32A (from UniProt P19438 30-240) (receptor)
- DOMINANT … (protection against TNF-induced death) [1]: < 5 % protection

Substance: p60ΔCD-HA (from UniProt P19438 30-240) (receptor)
- DOMINANT … (protection against TNF-induced death) (% of p60ΔCD wild type) [1]: 50

Substance: p60ΔCD-HA Q24A (from UniProt P19438 30-240) (receptor)
- DOMINANT … (protection against TNF-induced death) (% of p60ΔCD wild type) [1]: 50
